Here are results for seven compounds from PMC7185751 (Biochimica et Biophysica Acta. Proteins and Proteomics, 2014).

Read-outs that look alike come from different tables or passages of the source. Where a SMILES comes first, the peptide text is derived from it.

Data set [1] deals with histidine-57 in α-chymotrypsin. Conditions: cited from earlier work.
The target in data set [2] is T1, α-chymotrypsin (Bos taurus, UniProt P00766). The following applies: from pH 8 to 3, chymotrypsin; cited from earlier work.
The nature of data set [3]: 13C-NMR pH titration of free inhibitor. The data set is classed as physicochemical. The following applies: carboxyl group, determined by 13C-NMR.
The target in data set [4] is T1, α-chymotrypsin. The following applies: from pH 7.2 to 3.2 or 10.2; cited from earlier work.
Data set [5] has as its target T2, His57 (UniProt position 57, VVTAAHCGVTT). The following applies: cited from earlier work.
Data set [6] has as its target T2, His57. Put plainly: NMR. The following applies: 25 °C; hemiketal complex with the glyoxal inhibitor Z-Ala-Ala-Phe-COCHO; cited from earlier work.

On to `CC(=O)N[C@@H](CC(C)C)C(=O)N[C@H](C=O)Cc1ccccc1` [Acetyl-Leu-Phe-CHO] (Ac-Leu-Phe-aldehyde), for which, in data set [1], the “histidine pKa in the complex with α-chymotrypsin” value is 6.5.
As to `O=C[C@H](Cc1ccccc1)NC(=O)c1ccccc1` [Bz-Phe-CHO], the “fold increase in Ki” value on α-chymotrypsin [2] is recorded as 4 fold.
`CC(NC(=O)OCc1ccccc1)C(=O)NC(C)C(=O)NC(Cc1ccccc1)[13C](=O)O` (stereo not drawn) [ZAAF-^13COOH] yielded a pKa in data set [3] of 3.52 ± 0.03.
As to `C[C@H](NC(=O)OCc1ccccc1)C(=O)N1CCC[C@H]1C(=O)N[C@@H](Cc1ccccc1)C(=O)C=O` [ZAPF-COCHO], the “change of hemiketal formation” value on α-chymotrypsin [4] was “decreases”.
For the compound “alpha-chymotrypsin (Bos taurus (inferred; the article only says commercial alpha-chymotrypsin from Sigma))”, the figures for the pKa with His57 [5] (complex with the aldehyde inhibitor Acetyl-Leu-Phe-CHO (hemiacetal)), with His57 [5] (free enzyme) and with His57 [6] were 6.5, 6.7 and over 11, respectively.
Regarding “chymotrypsin (activation form not specified in the quoting sentence) (Bos taurus (inferred))”, the pKa with His57 [5] (negatively charged tetrahedral adduct with peptidyl boronic acid inhibitors) was over 10.
“delta-chymotrypsin (Bos taurus (inferred))”: the pKa with His57 [5] (free enzyme) was 7.5.

As usually defined, the pKa is the negative logarithm of the acid dissociation constant.
